How the values were obtained:
MCP-2 = target: T1, MCP-2 (Homo sapiens, UniProt P80075); test: Micro-array analysis of chemokine binding peptides: MCP-2; details: limit = start of the upper 75% of that peptide's response range
T1 construct: purchased 300-15
T1 sequence (P80075 24-99): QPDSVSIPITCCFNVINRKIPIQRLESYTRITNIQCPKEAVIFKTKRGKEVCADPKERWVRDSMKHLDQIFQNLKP
Description: (§1) (1) Printing: Chemokine (CK) solution (in water) was serially diluted with Print Reagent (GenTel BioSurfaces USA) to final concentrations of 50 μg and 25 μg/ml. BSA/BSA-Biotin control solutions (in water) were diluted with Print Reagent to 100 μg/ml. Amplified stock of M13 phage control (M13KEgIII Cloning Vector, New England Biolabs, Cat.No.E8101S) was stored in Tris Buffered Saline (TBS; pH7.5, 4° C.) and diluted with Print Reagent to the working titre (10^8 pfu/μl). An automated spotting robot (16 pin print tool, 0.4 mm head; BioRobotics, UK) was used to print the CK/BSA control/M13 control, 5 repeats per sample (CK 25 μg/ml and 50 μg/ml; BSA 100 μg/ml; M13 20 μl), on PATH Protein Microarray Slides (GenTel, Prod.No. 2-1005/-1025) at […], and 50-70% relative humidity. Printed micro-array slides were stored at Room Temperature (RT) or 4° C. for at least 24 h before use.
(§2) (2) Blocking: Block Buffer (500 μl/partition; PATHblock, GenTel, Prod.No. 2-1014) was applied to the slide for 1 hour at room temp (RT). After removal of Block Buffer, the slide was air dried for 25 minutes;
(§3) (3) Phage Presented Peptide Binding: Amplified recombinant phage stock was stored in TBS and diluted with Wash Buffer to working titer (10^7 pfu/μl). Recombinant phage suspension (300 μl) was applied per partition and incubated at RT for 1 hour with gentle agitation.
(§4) (4) First Washing: The slides were washed twice with Wash Buffer 300 μl/partition).
(§5) (5) Primary Antibody (Ab) Labeling: The slides were incubated with the Primary Ab (1 mg/ml diluted ×2500 (Wash Reagent), 300 μl; Mouse Anti-M13 monoclonal Ab; Amersham Biosciences, UK; Product Code 27-9420-01) for 45 minutes at RT.
(§6) (6) Second Washing: The slides were washed twice with Wash Buffer (300 μl/partition).
(§7) (7) Secondary Ab Labeling: The slides were incubated with Secondary Ab (1.5 mg/ml diluted ×5000 (Wash Reagent), 300 μl; Cy3-conjugated AffiniPure Goat Anti-Mouse IgG; Jackson ImmunoReserch Labs, USA; Product Code 115-165-062).
(§8) (8) Third Washing: The slides were washed twice with Wash Buffer (300 μl/partition).
(§9) (9) Rinse: the slides were rinsed twice with Rinse Buffer (PATHrinse, GenTel, Prod.No. 2-1018) then dried well.
(§10) (10) Scanning: The peptide-bound, labeled slide was scanned (Laser Intensity 80%, Gain 80%, Resolution 10 μm) with a ScanArray Life Scanner (Packard BioChip Technologies, USA).
(§11) (11) Analysis: Quantitative analysis of micro-array was performed by the SpotReader program of Niles Scientific (USA) and presented as Relative Fluorescence (RF) as a function of CK concentration. Micro-array readout (Cy3 fluorescence) was quantified to determine the relative binding affinities of a CBP for the CKs and by inference, the specificity of the CBP for binding to a CK.

Eotaxin 3 = target: T2, Eotaxin 3 (Homo sapiens, UniProt Q9Y258); test: Micro-array analysis of chemokine binding peptides: Eotaxin 3
T2 construct: purchased 300-48
T2 sequence (Q9Y258 24-94): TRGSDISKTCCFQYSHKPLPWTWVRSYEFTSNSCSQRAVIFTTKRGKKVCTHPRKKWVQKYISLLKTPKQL
Description: as §1, §2, §3, §4, §5, §6, §7, §8, §9, §10, §11

MCP-1 = target: T3, MCP-1 (Homo sapiens, UniProt P13500); test: Micro-array analysis of chemokine binding peptides: MCP-1; details: limit = start of the upper 75% of that peptide's response range
T3 construct: purchased 300-04
Description: as §1, §2, §3, §4, §5, §6, §7, §8, §9, §10, §11

Fractalkine = target: T4, Fractalkine (Homo sapiens, UniProt P78423); test: Micro-array analysis of chemokine binding peptides: Fractalkine
T4 construct: purchased 300-31
T4 sequence (P78423 25-100 limits assumed): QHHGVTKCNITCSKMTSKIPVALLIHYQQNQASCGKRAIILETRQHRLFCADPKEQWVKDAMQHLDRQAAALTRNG
Description: as §1, §2, §3, §4, §5, §6, §7, §8, §9, §10, §11

MCP-4 = target: T5, MCP-4 (Homo sapiens, UniProt Q99616); test: Micro-array analysis of chemokine binding peptides: MCP-4; details: limit = start of the upper 75% of that peptide's response range
T5 construct: purchased 300-24
Description: as §1, §2, §3, §4, §5, §6, §7, §8, §9, §10, §11

GRO-β = target: T6, GRO-β (Homo sapiens, UniProt P19875); test: Micro-array analysis of chemokine binding peptides: GRO-β; details: limit = start of the upper 75% of that peptide's response range
T6 construct: purchased 300-39
T6 sequence (P19875 35-107): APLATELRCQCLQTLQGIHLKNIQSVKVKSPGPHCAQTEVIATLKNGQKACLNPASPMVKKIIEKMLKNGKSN
Description: as §1, §2, §3, §4, §5, §6, §7, §8, §9, §10, §11

Eotaxin = target: T7, Eotaxin (Homo sapiens, UniProt P51671); test: Micro-array analysis of chemokine binding peptides: Eotaxin
T7 construct: purchased 300-21
Description: as §1, §2, §3, §4, §5, §6, §7, §8, §9, §10, §11

Exodus-2 = target: T8, Exodus-2 (Homo sapiens, UniProt O00585); test: Micro-array analysis of chemokine binding peptides: Exodus-2
T8 construct: purchased 300-35
T8 sequence (O00585 24-134): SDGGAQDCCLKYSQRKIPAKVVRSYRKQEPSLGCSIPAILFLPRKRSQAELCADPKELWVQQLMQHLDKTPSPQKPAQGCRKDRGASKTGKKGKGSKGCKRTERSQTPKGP
Description: as §1, §2, §3, §4, §5, §6, §7, §8, §9, §10, §11

Mig = target: T9, Mig (Homo sapiens, UniProt Q07325); test: Micro-array analysis of chemokine binding peptides: Mig; details: limit = start of the upper 75% of that peptide's response range
T9 construct: purchased 300-26
T9 sequence (Q07325 23-125): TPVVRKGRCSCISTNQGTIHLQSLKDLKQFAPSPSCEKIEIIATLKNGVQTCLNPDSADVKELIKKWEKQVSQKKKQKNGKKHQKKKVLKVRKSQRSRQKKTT
Description: as §1, §2, §3, §4, §5, §6, §7, §8, §9, §10, §11

IP-10 = target: T10, IP-10 (Homo sapiens, UniProt P02778); test: Micro-array analysis of chemokine binding peptides: IP-10; details: limit = start of the upper 75% of that peptide's response range
T10 construct: purchased 300-12
T10 sequence (P02778 22-98): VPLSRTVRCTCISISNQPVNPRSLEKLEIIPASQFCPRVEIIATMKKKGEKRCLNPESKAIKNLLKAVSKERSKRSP
Description: as §1, §2, §3, §4, §5, §6, §7, §8, §9, §10, §11

TECK = target: T11, TECK (Homo sapiens, UniProt O15444); test: Micro-array analysis of chemokine binding peptides: TECK
T11 construct: purchased 300-45
T11 sequence (O15444 24-150): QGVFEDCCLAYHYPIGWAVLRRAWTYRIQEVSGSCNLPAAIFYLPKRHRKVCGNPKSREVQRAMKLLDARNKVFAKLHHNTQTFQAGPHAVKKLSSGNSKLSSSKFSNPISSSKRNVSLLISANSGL
Description: as §1, §2, §3, §4, §5, §6, §7, §8, §9, §10, §11

RANTES = target: T12, RANTES (Homo sapiens, UniProt P13501); test: Micro-array analysis of chemokine binding peptides: RANTES
T12 construct: purchased 300-06
T12 sequence (P13501 24-91): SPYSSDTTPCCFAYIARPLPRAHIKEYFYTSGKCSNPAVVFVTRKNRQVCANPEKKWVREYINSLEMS
Description: as §1, §2, §3, §4, §5, §6, §7, §8, §9, §10, §11

IL-8 = test: Micro-array analysis of chemokine binding peptides: IL-8; details: limit = start of the upper 75% of that peptide's response range
Description: as §1, §2, §3, §4, §5, §6, §7, §8, §9, §10, §11

BCA-1 = target: T13, BCA-1 (Homo sapiens, UniProt O43927); test: Micro-array analysis of chemokine binding peptides: BCA-1
T13 construct: purchased 300-47
T13 sequence (O43927 23-109): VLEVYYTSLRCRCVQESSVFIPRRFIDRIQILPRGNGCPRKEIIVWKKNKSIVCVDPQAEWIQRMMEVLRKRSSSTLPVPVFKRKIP
Description: as §1, §2, §3, §4, §5, §6, §7, §8, §9, §10, §11

Lymphotactin = target: T14, Lymphotactin (Homo sapiens, UniProt P47992); test: Micro-array analysis of chemokine binding peptides: Lymphotactin
T14 construct: purchased 300-20
T14 sequence (P47992 22-114): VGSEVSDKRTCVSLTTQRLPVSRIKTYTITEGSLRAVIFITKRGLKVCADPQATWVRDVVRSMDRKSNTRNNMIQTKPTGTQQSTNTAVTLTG
Description: as §1, §2, §3, §4, §5, §6, §7, §8, §9, §10, §11

SDF1-β = target: T15, SDF1-β (Homo sapiens, UniProt P48061); test: Micro-array analysis of chemokine binding peptides: SDF1-β
T15 construct: purchased 300-28b
Description: as §1, §2, §3, §4, §5, §6, §7, §8, §9, §10, §11

SDF1-α = target: T16, SDF1-α (Homo sapiens, UniProt P48061); test: Micro-array analysis of chemokine binding peptides: SDF1-α
T16 construct: purchased 300-28a
Description: as §1, §2, §3, §4, §5, §6, §7, §8, §9, §10, §11

Eotaxin 2 = target: T17, Eotaxin 2 (Homo sapiens, UniProt O00175); test: Micro-array analysis of chemokine binding peptides: Eotaxin 2; details: limit = start of the upper 75% of that peptide's response range
T17 construct: purchased 300-33
T17 sequence (O00175 27-119): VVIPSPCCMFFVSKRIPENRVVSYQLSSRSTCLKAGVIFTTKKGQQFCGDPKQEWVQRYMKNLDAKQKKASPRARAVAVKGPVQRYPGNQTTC
Description: as §1, §2, §3, §4, §5, §6, §7, §8, §9, §10, §11

I-TAC = target: T18, I-TAC (Homo sapiens, UniProt O14625); test: Micro-array analysis of chemokine binding peptides: I-TAC; details: limit = start of the upper 75% of that peptide's response range
T18 construct: purchased 300-46
T18 sequence (O14625 22-94): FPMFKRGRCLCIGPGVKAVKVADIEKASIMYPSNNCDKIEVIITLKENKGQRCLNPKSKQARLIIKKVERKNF
Description: as §1, §2, §3, §4, §5, §6, §7, §8, §9, §10, §11

I-309 = target: T19, I-309 (Homo sapiens, UniProt P22362); test: Micro-array analysis of chemokine binding peptides: I-309; details: limit = start of the upper 75% of that peptide's response range
T19 construct: purchased 300-37
T19 sequence (P22362 24-96): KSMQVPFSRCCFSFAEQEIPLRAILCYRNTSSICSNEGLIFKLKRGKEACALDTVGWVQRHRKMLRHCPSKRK
Description: as §1, §2, §3, §4, §5, §6, §7, §8, §9, §10, §11

[1] = limit = start of the upper 75% of that peptide's response range

T5 sequence (Q99616 17-98): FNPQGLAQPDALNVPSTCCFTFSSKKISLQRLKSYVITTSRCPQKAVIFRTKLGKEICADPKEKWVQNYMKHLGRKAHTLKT
Sequence of IL-8 (P10145 28-99 limits assumed): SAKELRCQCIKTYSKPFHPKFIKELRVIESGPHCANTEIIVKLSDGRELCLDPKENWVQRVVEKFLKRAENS
T7 sequence (P51671 24-97): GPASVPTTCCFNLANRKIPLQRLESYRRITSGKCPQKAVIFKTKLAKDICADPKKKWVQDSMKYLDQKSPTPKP
T15 sequence (P48061 22-93): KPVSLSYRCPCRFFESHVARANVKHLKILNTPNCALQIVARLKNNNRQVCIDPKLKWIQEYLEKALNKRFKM
T3 sequence (P13500 24-99): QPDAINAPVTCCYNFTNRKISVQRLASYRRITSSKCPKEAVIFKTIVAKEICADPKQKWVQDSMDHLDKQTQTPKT
T16 sequence (P48061 22-89 limits assumed): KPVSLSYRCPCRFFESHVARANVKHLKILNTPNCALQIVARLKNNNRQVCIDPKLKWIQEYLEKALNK

WVFGHGMCK [Ph-p25]
bound: binding to Eotaxin 3, stated in words (Eotaxin 3) | binding to Fractalkine, stated in words (Fractalkine) | binding to Eotaxin, stated in words (Eotaxin) | binding to Exodus-2, stated in words (Exodus-2) | binding to TECK, stated in words (TECK) | binding to RANTES, stated in words (RANTES) | binding to BCA-1, stated in words (BCA-1) | binding to Lymphotactin, stated in words (Lymphotactin)
> 15,000 RFU: binding to MCP-2 with relatively high affinity (Relative Fluorescence Units) (MCP-2) | binding to MCP-1 with relatively high affinity (Relative Fluorescence Units) (MCP-1) | binding to MCP-4 with relatively high affinity (Relative Fluorescence Units) (MCP-4) | binding to GRO-β with relatively high affinity (Relative Fluorescence Units) (GRO-β) | binding to Mig with relatively high affinity (Relative Fluorescence Units) (Mig) | binding to IP-10 with relatively high affinity (Relative Fluorescence Units) (IP-10) | binding to IL-8 with relatively high affinity (Relative Fluorescence Units) (IL-8)

DYDY (listed as Homo sapiens) [Ph-p32]
> 10,000 RFU: binding to MCP-2 with relatively high affinity (Relative Fluorescence Units) (MCP-2) | binding to Eotaxin 3 with relatively high affinity (Relative Fluorescence Units) (Eotaxin 3; [1]) | binding to MCP-4 with relatively high affinity (Relative Fluorescence Units) (MCP-4) | binding to GRO-β with relatively high affinity (Relative Fluorescence Units) (GRO-β) | binding to Eotaxin with relatively high affinity (Relative Fluorescence Units) (Eotaxin; [1]) | binding to Mig with relatively high affinity (Relative Fluorescence Units) (Mig) | binding to Eotaxin 2 with relatively high affinity (Relative Fluorescence Units) (Eotaxin 2) | binding to RANTES with relatively high affinity (Relative Fluorescence Units) (RANTES; [1]) | binding to I-TAC with relatively high affinity (Relative Fluorescence Units) (I-TAC) | binding to IL-8 with relatively high affinity (Relative Fluorescence Units) (IL-8) | binding to I-309 with relatively high affinity (Relative Fluorescence Units) (I-309)
bound: binding to SDF1-β, stated in words (SDF1-β) | binding to Fractalkine, stated in words (Fractalkine) | binding to SDF1-α, stated in words (SDF1-α) | binding to Exodus-2, stated in words (Exodus-2) | binding to TECK, stated in words (TECK) | binding to BCA-1, stated in words (BCA-1) | binding to Lymphotactin, stated in words (Lymphotactin)
